Results as given in the supplement of paper PMC9170038.

Test system: MS2 coat protein
Assay: apparent KD of MS2 coat protein; higher = weaker reporter binding
Conditions: Eterna round: R107
How it was run: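 Illumina sequencing clusters were used for on-chip transcription of designed RNA switches. Titration with SNAP-549-labelled MS2 coat protein followed, in twofold steps from 0.7 or 1.5 nM to 3 µM in 100 mM Tris-HCl pH 7.5, 80 mM KCl, 4 mM MgCl2, without or with constant ligand. Apparent KD is each design's median of fits to normalised cluster binding curves.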

[1] = input ligand: theophylline 20 uM
[2] = input ligand: theophylline 2 mM
[3] = input ligand: tryptophan 2.4 mM

| Sequence | apparent KD of MS2 coat protein (input ligand: arginine 13.2 mM) | apparent KD of MS2 coat protein (input ligand: none) | apparent KD of MS2 coat protein [1] | apparent KD of MS2 coat protein [2] | apparent KD of MS2 coat protein [3] |
| --- | --- | --- | --- | --- | --- |
| UCGCUCUGGGUGAGAUCCGGAGAUGUGGAAGGAGCGCUGGAAACAGCAGGUAGGUCGCCAACGGACAUGAGGAUCACCCAUGUAC [Same State - Arginine A (Freestyle 19)] | 0.0414 µM | 0.0444 µM | 0.0753 µM | 0.0319 µM | 0.0815 µM |
| UCGCUCUGGGUGGAAUCCGGAGAUGUGGAAGGAGCGCUCGAAAGGGCAGGUAGGUCGCCAACGGACAUGAGGAUCACCCAUGUAC [#23 Same State - Arginine A] | 0.0294 µM | 0.0254 µM | 0.0375 µM | 0.0398 µM | 0.0493 µM |
| UCGGACAUGAGGAUCACCCAUGUAAAUCCUCGAGGACCGGUACGGCCGCCACUCGAACGAGUGGCACGCGAGUGCGCACUCGCGU [aEa] | 0.0241 µM | – | 0.0478 µM | 0.034 µM | – |
| UCGGCAGUGAACGAUACCAGCGUCACGUGGCCGGUGGUCACAUGAGGAUCACCCAUGUAACGCCCUUGGCAGCGUGCGCGUACCG [Zaancebi] | 0.0151 µM | – | 0.0635 µM | – | 0.0273 µM |
| UCGGGCAGAGCGGCCGCCACUGUUUGGCAUGCGGAUGAAGGAACAUGAGGAUCACCCAUGUAGAUUAGGACCGGGCUUGCGGAGA [rvcmullin] | 0.0191 µM | 0.0182 µM | 0.0221 µM | 0.0238 µM | 0.0195 µM |
| UCGGGCAGAGCGGCCGCCACUGUUUGGCGUGCGGAUGACGGAACAUGAGGAUCACCCAUGUUGAUUAGGACCGGGCUUGCGGAGA [qpqullin] | 0.0113 µM | 0.0147 µM | 0.0241 µM | 0.0138 µM | 0.0147 µM |
| UCGUGCAGAGCGGCCGCCACUGUAUUGCGUGCGGAUGACGGAACAUGAGGAUCACCCAUGUUGUUUAGGACCGGGCUUGCCACCA ['xmullin] | 0.0124 µM | – | 0.0159 µM | 0.0143 µM | – |
| UCGUUGAAGUCGGCCGCCACUGAACUCAUGUUCAACAUGAGGAUCACCCAUGUACCUUAUUUUAACAGGACCGGGACUUUGACGA [JR_ExcTryptoB_Sub002] | 0.113 µM | – | 0.229 µM | 0.164 µM | – |
| UCGUUUGAGGCGGCCGCCACUGGUCUCAUGGUCAACAUGAGGAUCACCCAUGUAUCUUAGUUAAGCAGGACCGGGCCUCGAGCGA [#18 Exclusion Tryptophan B] | 0.0389 µM | 0.0727 µM | 0.105 µM | 0.0956 µM | 0.0323 µM |
| UCUGGUAUGACGGCCGCCACUAGAUCGUGAGAAGCCUGCAUACAUGAGGAUCACCCAUGUCUCACUAGGACCGGGUCAUUCCAAU [theeternabot_sameState_MS2_Trp_B_5] | 0.0538 µM | – | 0.105 µM | 0.119 µM | – |
| UGAAAGUAGGGAAGGAGCGCUACAACAUGAGGAUCACCCAUGUAAUGAGGAUCACCCAUGUGGCAGGUAGGUCGCCCAAAACAUG [#14 Same State - Arginine B] | 0.085 µM | 0.167 µM | 0.151 µM | 0.197 µM | 0.181 µM |
| UGACACAUGAGGAUCACCCAUGUCGCGAAACGAGGACCGGUACGGCCGCCACUCGCACAAACUCCUCUCCAGCACCAGCUUUUAG [theeternabot_sameState_MS2_Trp_A_3] | 0.0154 µM | – | 0.0282 µM | 0.0242 µM | – |
| UGACAUGAGGAUCACCCAUGUAUAACUGAAGGAGCGUCCAUAAGGACAGGUAGGUCGCGGAAUGAACAGAGUGCACGACAUGUUU [Arg A SS t1] | 0.0128 µM | 0.0133 µM | 0.0177 µM | 0.0143 µM | 0.0142 µM |
| UGACGAUACCUGGAUACCAGCGACAUGAGGAUCACCCAUGUAUGAGGAUCAGCCAUGUUAUGCCCUUGGCAGCCACGAAAGUCUU [UUUMULLIN] | 0.0375 µM | – | 0.115 µM | – | 0.0403 µM |
| UGAUACCAGUCGGCCGCCACUACAUGAGGAUCACCCAUGUAUCCUCAACUGCUAGAUACUAGCAGUAGGACCGGGACUGGUAUCU | 0.164 µM | – | 0.408 µM | 0.459 µM | – |
| UGCGAUUGCUCAGAUACCAGACAUGAGGAUCACCCAUGUACCAAGGUAAAGAAAUAACGUGUCCCUUGGCAGCUGAGCAAUCGCU [MAT - Exclusion Theophlline B - Mod of Eli - D9] | 0.0119 µM | – | 0.014 µM | – | 0.0113 µM |
| UGGGAAGGAGGAAGGAGCGCCAUAAGGGUGACUGUCUGGGUACAUGAGGAUCACCCAUGUAGGCAGGUAGGUCGCCUCGCUCUCA [Bibienoned] | 0.0103 µM | 0.0101 µM | 0.0119 µM | 0.0104 µM | 0.0104 µM |
| UGGGUACAUGAGGAUCACCCAUGUACUGAAGGAGCGAGAAUUAUCUCAGGUAGGUCGCAGACAUGAGGAUCACCCAUGUAGUAGG [Exclusion Arginine A GF 12] | 0.0253 µM | 0.0273 µM | 0.0306 µM | 0.0372 µM | 0.0242 µM |
| UGGGUACCGACGGCCGCCACUGAAUAUAGACAUGAGGAUCACCCAUGUAGAGAUCCUAGAAUAAACAGGACCGGGUCUGGUGCUA [Exclusion Tryptophane B GF5] | 0.0924 µM | – | 0.239 µM | 0.293 µM | – |
| UGUAACAUGAGGAUCACCCAUGUGAGUGAUACCAGACUAGUGUUAGUCCCUUGGCAGCACGCUGGACGAAUGUGUAGUCUAUGCG [Same State - Theophylline A (Freestyle 19)] | 0.0558 µM | 0.078 µM | 0.108 µM | 0.0583 µM | 0.0639 µM |

| Sequence | apparent KD of MS2 coat protein (input ligand: arginine 13.2 mM) | apparent KD of MS2 coat protein (input ligand: none) | apparent KD of MS2 coat protein [1] | apparent KD of MS2 coat protein [2] | apparent KD of MS2 coat protein [3] |
| --- | --- | --- | --- | --- | --- |
| UGUACCAUGUCGGCCGCCACUCAUGAUAAACAAGAGGAUCACCCUUGUAGCGUCAAAGACGCUAUGAGGACCGGGACAUGGUACU [TryBS Zipper 2] | 0.0295 µM | 0.0297 µM | 0.0412 µM | 0.0439 µM | 0.0155 µM |
| UGUACCUGUAUCUGGUCCAUAGUAUAACCUCGAGGACCGGUACGGCCGCCACUCGUCGGACCACAUGAGGAUCACCCAUGUACCG [theeternabot_exclusion_MS2_Trp_A_23] | 0.0129 µM | – | 0.0178 µM | 0.0141 µM | – |
| UGUAUGGACUGAAGGAGCGCCUCAAAAUAUCAUGAGGAUCACCCAUGGAAGGCGAAAGCCGGGCAGGUAGGUCGCAGUCCAUACU [ArgBX 3] | 0.0202 µM | 0.0156 µM | 0.0191 µM | 0.0156 µM | 0.0134 µM |
| UGUAUGGACUGAAGGAGCGCCUCAAACAUGAGGAUCACCCAUGUGGACAAAUAAGUCCUUGGGCAGGUAGGUCGCAGUCCAUACU [ArgBX 7 #StaticStem #MS2Late] | 0.0735 µM | 0.0828 µM | 0.0912 µM | 0.0906 µM | 0.0661 µM |
| UGUAUGGACUGAAGGAGCGGAAAAUAAACCUGAGGAUCACCCGGGUAAUAGGCGAAAGCCAUCCAGGUAGGUCGCAGUCCAUACU | 0.156 µM | – | 0.233 µM | 0.385 µM | 0.291 µM |
| UGUAUGGACUGAAGGAGCGGGUAAAUAACCUGAGGAUCACCCAGGUAAAAGGCGAAAGCCACCCAGGUAGGUCGCAGUCCAUACU | 0.0106 µM | – | 0.0137 µM | 0.0127 µM | 0.011 µM |
| UGUAUGUGAUCUGAUACCAGAGUGAAUAAACCUGAGGAUCACCCUGGUAGGCGAAAGCCACUCCCUUGGCAGCAGAUCGCAUACU | 0.102 µM | 0.139 µM | 0.112 µM | 0.0386 µM | 0.141 µM |
| UGUAUGUGAUCUGAUACCAGAGUUGAUAAUCUGAGGAUCACCCUGGUAAGGCGAAAGCCACUCCCUUGGCAGCAGAUCGCAUACU | 0.106 µM | 0.306 µM | 0.874 µM | 0.175 µM | 0.725 µM |
| UGUAUGUGAUCUGAUACCAGCCUCAUAACUUGAGGAUCACCCAAGUGGAGCGGAAACGCUGGCCCUUGGCAGCAGAUCGCAUACU [TheoBS 2 #AlternativeMS2] | 0.205 µM | 0.46 µM | 0.2 µM | 0.0153 µM | 0.556 µM |
| UGUAUGUGAUCUGAUACCAGUCCAACUGGUAAAACUUGAGGAUCACCCAGGUAAAAUUGGGACCCUUGGCAGCAGAUCGCAUACU | 0.15 µM | 0.316 µM | 0.597 µM | 0.129 µM | 0.705 µM |
| UGUCAGCGAAAGUUGACAUGUCUUGCUGGUCGAGGACCGGUACGGCCGCCACUCGAUCUCUCGCACAUGAGGAUCACCCAUGUUG [SS Tryp A #23] | 0.0139 µM | – | 0.0144 µM | 0.0139 µM | – |
| UGUGUGUGACCAGGAAAUGGUCACACACAGCGAGGACCGGUACGGCCGCCACUCGGCCGUACAUGAGGAUCACCCAUGUCGGGUA [#1 Same State - Tryptophan A Attempt #9 (HarryS)] | 0.0996 µM | – | 0.961 µM | 1.29 µM | – |
| UGUUUGGUGCGCGAGUGUUGGAUAAUUGAUACCAGUGAAGAAGAGCGCCCUUGGCAGCGAAUCCUAACAUGAGGAUCACCCAUGU [5.U] | 0.0415 µM | 0.0397 µM | 0.0848 µM | 0.0517 µM | 0.039 µM |
| UUAAGAGGCUAUCCACUUUGAUUUUGUGAUACCAGAAUAAUUUUAUUCCCUUGGCAGCAUGACAUGAGGAUCACCCAUGUGUCUU [SSTheo A #3] | 0.0314 µM | – | 0.0465 µM | – | 0.0369 µM |
| UUAAUCUAUGAAGAAAACUUUAUAGCAGAAGGAGCGUGAUAAAACACAGGUAGGUCGCUGAAGGGAACAUGAGGAUCACCCAUGU [AstrosSSArgA#19] | 0.0237 µM | 0.0227 µM | 0.0367 µM | 0.0311 µM | 0.0265 µM |
| UUAAUUAUAUAUUAUUUAAUAUUUACAGAAGGAGCGUGAUAAAACACAGGUAGGUCGCUGAAGGGAACAUGAGGAUCACCCAUGU [AstrosSSArgA#20] | 0.0286 µM | 0.0289 µM | 0.0416 µM | 0.0601 µM | 0.0389 µM |
| UUACACAUGAGGAUCACCCAUGUCUGGGAGCGAGGACCGGUACGGCCGCCACUCGAAUUGUCAGGGCUAUGCCGGACGAUGCAUC [theeternabot_sameState_MS2_Trp_A_20] | 0.0206 µM | – | 0.0235 µM | 0.025 µM | – |
| UUAUAAGUACCGGUCCUCAGAUCCUCAUGACGAGGACCGGUACGGCCGCCACUCGAAACAUGAGGAUCACCCAUGUAAUAAUAAC [Brourdmod04] | 0.0233 µM | – | 0.0921 µM | 0.0377 µM | – |
| UUAUGAUGUUCCGAUACCAGCCAUGUAGUUCUAACUUAACAUGAGGAUCACCCAUGUACCGGCCCUUGGCAGCGGAUGUGGAUUA [#22Same State - Theophylline B] | 0.027 µM | 0.0234 µM | 0.0293 µM | 0.0148 µM | 0.0237 µM |
